The values that follow come from PMC3240612, “Quantitative Multicolor Super-Resolution Microscopy Reveals Tetherin HIV-1 Interaction” (PLoS Pathogens, 2011).

The target in data set [1] is T1, HA-tetherin (N-terminal HA-tagged tetherin), in virions released by PI-PLC (human), Q10589.
T1 chain: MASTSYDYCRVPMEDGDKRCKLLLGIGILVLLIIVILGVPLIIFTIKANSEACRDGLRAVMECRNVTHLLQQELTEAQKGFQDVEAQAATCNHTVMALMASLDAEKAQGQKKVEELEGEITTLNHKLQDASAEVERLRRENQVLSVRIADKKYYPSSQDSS
To be noted: remark: other sources report otherwise.

Data set [2] concerns the target T2, tetherin-HA (HA tag inserted after the extracellular coiled-coil domain), in virions released by PI-PLC (human), Q10589.
T2 chain: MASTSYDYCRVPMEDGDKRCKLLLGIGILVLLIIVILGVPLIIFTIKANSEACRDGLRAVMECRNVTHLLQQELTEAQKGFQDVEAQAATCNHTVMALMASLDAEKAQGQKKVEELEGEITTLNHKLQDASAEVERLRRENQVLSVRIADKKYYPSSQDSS
The settings on record: remark: other sources report otherwise.

Data set [3] concerns the molecule itself. In words: non-reducing against reducing SDS-PAGE with Western blot; virions stripped from 293T cells by subtilisin A (0, 5 or 50 µg/ML), pelleted through sucrose, lysed in RIPA; anti-HA blot without βME and with βME.

B1: HA-tetherin (N-terminal HA-tagged tetherin), in virions released by PI-PLC, Q10589 1-161 (natural protein)
chain: MASTSYDYCRVPMEDGDKRCKLLLGIGILVLLIIVILGVPLIIFTIKANSEACRDGLRAVMECRNVTHLLQQELTEAQKGFQDVEAQAATCNHTVMALMASLDAEKAQGQKKVEELEGEITTLNHKLQDASAEVERLRRENQVLSVRIADKKYYPSSQDSS
modifications: here or on the partner: C-terminal GPI anchor, cut by PI-PLC; C-terminal GPI anchor, cut by PI-PLC
In general, stoichiometry N refers to a count of units in the complex or per binding partner. On to B1, for which, in data set [1], the stoichiometry N amounted to 2.

B2: tetherin-HA (HA tag inserted after the extracellular coiled-coil domain), in virions released by PI-PLC, Q10589 1-161 (natural protein)
chain: MASTSYDYCRVPMEDGDKRCKLLLGIGILVLLIIVILGVPLIIFTIKANSEACRDGLRAVMECRNVTHLLQQELTEAQKGFQDVEAQAATCNHTVMALMASLDAEKAQGQKKVEELEGEITTLNHKLQDASAEVERLRRENQVLSVRIADKKYYPSSQDSS
modifications: here or on the partner: C-terminal GPI anchor, cut by PI-PLC; C-terminal GPI anchor, cut by PI-PLC
As for B2, in data set [2], the stoichiometry N is 2.

B3: N-terminal fragment of HA-tetherin left inside virions after subtilisin A treatment (domain or fragment, human, UniProt Q10589 1-67, looked up)
chain: MASTSYDYCRVPMEDGDKRCKLLLGIGILVLLIIVILGVPLIIFTIKANSEACRDGLRAVMECRNVT
notes: tetherin (CD317, BST-2, HM1.24), human, Swiss-Prot Q10589; N-terminal fragment left after subtilisin A cleavage; Disulfide-linked dimer: ~26 kDa without βME, ~13 kDa with βME; also called dimeric N-termini; HA fragment of ~26 kDa (non-reducing), ~13 kDa (reducing); source: 293T, transfected with HIV-1 Δvpu and HA-tetherin; cells treated with subtilisin A; released virions pelleted through sucrose …
On to B3, for which, in data set [3], the “stoichiometry N” value is 2.
